Results taken from patent US6815189B1, “Gene from acremonium chrysogenum encoding a protein with cephalosporin C acetylhydrolase activity and methods of use of such gene” (Antibiotics, S.A.U., priority 1999, dated 2004).

Tested on: [H][C@]12SCC(COC(C)=O)=C(C(=O)O)N1C(=O)[C@H]2NC(=O)CCC[C@@H](N)C(=O)O
Assay: Effect of substrate concentration on CPC-AH B activity (Lineweaver-Burk)
Format: biochemical, Acremonium chrysogenum
Settings: other: CPC-AH B vs. CPC, 37.0 °C
Description: To quantify the enzymatic degradation of the CPC, a reaction mixture was prepared, based on that described by Fujisawa et al. (1975, Agric. Biol. Chem. 39: 1303-1309) that contained, in a total volume of 100 μl: Tris-HCl, pH 8.0, 50 mM; CPC, 20 mM and culture supernatant 75 μl. The mixture was incubated for 60 minutes at 37° C. and the reaction was stopped by adding 100 μl of methanol. The proteins precipitated were removed by centrifugation for 5 minutes at 14 000 rev/min in an Eppendorff centrifuge. Production of DAC was analysed by injecting 100 μl of the reaction mixture in an HPLC Beckman System Gold equipped with a μBondapack C18 column. Elution was performed using a mixture of solvents A (10 mM sodium acetate—acetic acid, pH 4.5) and B (100% acetonitrile) using a linear gradient from 0 to 3% of solvent B between the 0 and 2 minutes and constant 3% from minute 2 to 15 at a flow of 1.3 ml/min. The cephalosporins are detected by their absorbance at 260 nm. In these conditions DAC is eluted with a retention time of 3.1 min whereas for CPC this occurs at 8.3 min. Both compounds were identified by co-elution with standard samples of CPC and DAC.
With fractions obtained from ion exchange separation, tests of CPC-AH activity were performed by HPLC, varying the concentration of CPC. […]

Sequence of CPC-AH B (Hapsidospora chrysogenum ATCC 11550) (chain, as listed by the source): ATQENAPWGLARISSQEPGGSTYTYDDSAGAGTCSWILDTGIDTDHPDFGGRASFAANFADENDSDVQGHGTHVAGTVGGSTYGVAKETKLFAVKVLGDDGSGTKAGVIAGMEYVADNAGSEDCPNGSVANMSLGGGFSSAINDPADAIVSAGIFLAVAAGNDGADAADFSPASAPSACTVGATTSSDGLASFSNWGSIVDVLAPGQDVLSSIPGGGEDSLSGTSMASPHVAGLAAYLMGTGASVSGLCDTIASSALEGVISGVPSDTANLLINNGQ

Q: How did the Km turn out when “CPC-AH B (Hapsidospora chrysogenum ATCC 11550)” was run?
A: The Km was 33.72 mM.

Q: And the Vmax?
A: The Vmax was 91.95 pKat/mg.
